The source of these data is article PMC4045628 (CellBio, 2014).

For assay [1], the target named is T1, HA-tagged wild-type PKC iota (UniProt P41743 1-596).
T1 sequence (looked up): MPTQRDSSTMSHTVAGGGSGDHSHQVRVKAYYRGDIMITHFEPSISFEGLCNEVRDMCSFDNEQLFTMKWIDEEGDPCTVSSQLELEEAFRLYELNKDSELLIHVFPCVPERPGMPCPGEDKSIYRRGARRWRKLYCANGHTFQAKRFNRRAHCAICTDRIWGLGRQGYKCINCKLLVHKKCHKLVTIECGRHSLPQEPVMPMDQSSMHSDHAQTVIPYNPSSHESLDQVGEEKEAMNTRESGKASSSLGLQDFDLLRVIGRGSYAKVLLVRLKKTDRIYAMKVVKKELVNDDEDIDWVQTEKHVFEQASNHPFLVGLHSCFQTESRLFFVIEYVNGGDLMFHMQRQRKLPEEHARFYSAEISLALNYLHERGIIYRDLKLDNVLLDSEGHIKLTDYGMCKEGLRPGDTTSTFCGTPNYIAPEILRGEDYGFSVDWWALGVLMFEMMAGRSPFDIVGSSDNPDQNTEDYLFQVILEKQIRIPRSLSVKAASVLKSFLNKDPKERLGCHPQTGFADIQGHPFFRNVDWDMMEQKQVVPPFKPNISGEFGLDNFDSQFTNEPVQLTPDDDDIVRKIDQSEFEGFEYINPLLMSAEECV
Nature of the assay: co-IP.

Assay [2] concerns the target HA-tagged kinase-inactive PKC iota (UniProt P41743). The assay can be described thus: co-IP.

B1: PAR-6B (natural protein, rat (endogenous in PC12), UniProt D4A2F2 1-372, looked up)
chain: MNRGHRHGVSSGCLGTMEVKSKFGAEFRRFSLERSKPGKFEEFYGLLQHVHKIPNVDVLVGYADIHGDLLPINNDDNYHKAVSTANPLLRVFIQKKEEADYSAFGTDTLIRKKNVLSNVLRPDNHRKKPHIVISMPQDFRPVSSIIDVDILPETHRRVRLYKYGTEKPLGFYIRDGSSVRVTPHGLEKVPGIFISRLVPGGLAQSTGLLAVNDEVLEVNGIEVSGKSLDQVTDMMIANSRNLIITVRPANQRNNVVRNSRTSGSSGQSTDNSLLGYPQQAGASLEPEDQDSDEDDIIIEGSGEPQQIPKATPEALSLESLTQIELSFESGQNGFSPLQDTSLVAVPSSLDTESESRAPDQKLLEEDGTIITL
Regarding B1, the “fold co-immunoprecipitated relative to PAR-3” value in assay [1] is approximately 10 fold; in assay [2] it was 10 fold.
